As a reminder, the Kd is the concentration at which binding is half-saturated.

The values that follow come from article PMC8067440 (Journal of Personalized Medicine, 2021).

The target in series [1] is T1, DMa-FlAsH (row MMa-FlAsH) (Homo sapiens, UniProt P21549, INS254CCPGCC).
T1 construct: gene AGXT; full length with CCPGCC FlAsH motif inserted in a surface loop, expressed in E. coli BL21(DE3), purified on HisPrep FF (His-tagged)
T1 sequence (P21549 with tags, fused parts or gaps INS254CCPGCC): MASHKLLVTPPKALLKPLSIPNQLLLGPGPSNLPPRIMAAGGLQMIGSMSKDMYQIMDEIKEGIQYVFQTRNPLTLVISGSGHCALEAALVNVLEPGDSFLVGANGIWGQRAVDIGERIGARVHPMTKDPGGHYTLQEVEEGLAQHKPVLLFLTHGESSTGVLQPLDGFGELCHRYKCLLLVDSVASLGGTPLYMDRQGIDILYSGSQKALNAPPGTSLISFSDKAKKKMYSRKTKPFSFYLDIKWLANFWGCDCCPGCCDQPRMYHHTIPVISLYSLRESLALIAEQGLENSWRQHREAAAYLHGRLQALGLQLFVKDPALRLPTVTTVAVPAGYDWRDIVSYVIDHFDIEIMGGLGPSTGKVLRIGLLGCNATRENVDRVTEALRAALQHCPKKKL
The series is described as follows: intrinsic fluorescence quenching of apoenzyme, tight-binding quadratic fit. To be noted: 0.1 μM apoenzyme, 24 h incubation, PLP 0.01–10 μM. As to the method:
intrinsic fluorescence quenching of apoenzyme, tight-binding quadratic fit on DMa-FlAsH (row MMa-FlAsH) | The KD(PLP) of DMa-FlAsH was calculated by measuring the intrinsic fluorescence quenching

The target in series [2] is T2, AGT (DMa, major allele) (Homo sapiens, UniProt P21549, F238S/F240S/I340M/P11L/R118A).
T2 construct: gene AGXT; full length, expressed in E. coli BL21(DE3), purified on HisPrep FF (His-tagged, removal not mentioned)
T2 sequence (P21549 1-392 P11L/R118A/F238S/F240S/I340M): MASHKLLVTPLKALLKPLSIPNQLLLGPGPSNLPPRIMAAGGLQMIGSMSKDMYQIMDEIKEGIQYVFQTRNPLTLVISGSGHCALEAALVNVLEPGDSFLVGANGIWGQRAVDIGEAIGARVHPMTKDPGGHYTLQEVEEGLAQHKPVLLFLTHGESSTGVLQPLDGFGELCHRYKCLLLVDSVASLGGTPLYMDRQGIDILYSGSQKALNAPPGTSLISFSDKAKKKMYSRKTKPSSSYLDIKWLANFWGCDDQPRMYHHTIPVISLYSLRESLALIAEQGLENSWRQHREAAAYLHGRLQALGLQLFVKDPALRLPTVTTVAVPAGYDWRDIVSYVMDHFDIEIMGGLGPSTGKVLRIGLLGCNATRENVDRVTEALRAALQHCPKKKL
The series is described as follows: not described in detail here for MMi. The conditions noted are these: read-out: KD(PLP). The format is binding. The text has this: not described in detail here for MMi on AGT (DMa, major allele; rows DMi, MMa, MMi)

For series [3], the target named is T3, AGT (DMa, major allele) (Homo sapiens, UniProt P21549).
T3 construct: gene AGXT; full length, expressed in E. coli BL21(DE3), purified on HisPrep FF (His-tagged, removal not mentioned)
T3 sequence (P21549 1-392): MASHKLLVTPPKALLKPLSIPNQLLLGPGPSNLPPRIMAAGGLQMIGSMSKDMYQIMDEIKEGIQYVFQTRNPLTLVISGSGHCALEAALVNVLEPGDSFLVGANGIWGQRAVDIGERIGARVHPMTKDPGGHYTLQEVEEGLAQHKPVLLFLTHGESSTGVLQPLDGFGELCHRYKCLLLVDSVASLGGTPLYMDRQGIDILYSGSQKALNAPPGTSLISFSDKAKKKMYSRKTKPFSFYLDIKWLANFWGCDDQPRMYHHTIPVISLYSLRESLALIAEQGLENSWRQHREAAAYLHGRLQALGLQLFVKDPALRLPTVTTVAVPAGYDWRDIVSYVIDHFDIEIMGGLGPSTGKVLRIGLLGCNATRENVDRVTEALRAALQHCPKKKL
The series is described as follows: not described here for DMa. It counts as binding. To be noted: read-out: KD(PLP). From the text: not described here for DMa on AGT (DMa, major allele; rows DMi, MMa, MMi)

Series [4] deals with T4, AGT (DMa, major allele) (Homo sapiens, UniProt P21549, F238S/F240S/R118A).
T4 construct: gene AGXT; full length, expressed in E. coli BL21(DE3), purified on HisPrep FF (His-tagged, removal not mentioned)
T4 sequence (P21549 1-392 R118A/F238S/F240S): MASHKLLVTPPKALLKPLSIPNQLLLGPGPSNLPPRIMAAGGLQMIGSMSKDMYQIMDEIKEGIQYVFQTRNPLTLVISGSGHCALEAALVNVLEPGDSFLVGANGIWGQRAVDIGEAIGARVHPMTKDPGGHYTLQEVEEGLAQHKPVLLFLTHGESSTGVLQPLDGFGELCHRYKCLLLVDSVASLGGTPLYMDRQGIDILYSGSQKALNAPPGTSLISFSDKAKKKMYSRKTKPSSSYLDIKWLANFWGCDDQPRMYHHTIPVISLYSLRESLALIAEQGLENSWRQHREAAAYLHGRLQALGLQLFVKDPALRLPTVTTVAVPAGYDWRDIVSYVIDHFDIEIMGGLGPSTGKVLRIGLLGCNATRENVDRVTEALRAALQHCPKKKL
The series is described as follows: CD signal at […] nm, tight-binding quadratic fit. To be noted: read-out: KD(PLP).

Series [5] has as its target T5, DMa-FlAsH (row MMa-FlAsH) (Homo sapiens, UniProt P21549, R118A/F238S/F240S/INS254CCPGCC).
T5 construct: gene AGXT; full length with CCPGCC FlAsH motif inserted in a surface loop, expressed in E. coli BL21(DE3), purified on HisPrep FF (His-tagged)
T5 sequence (P21549 with tags, fused parts or gaps R118A/F238S/F240S/INS254CCPGCC): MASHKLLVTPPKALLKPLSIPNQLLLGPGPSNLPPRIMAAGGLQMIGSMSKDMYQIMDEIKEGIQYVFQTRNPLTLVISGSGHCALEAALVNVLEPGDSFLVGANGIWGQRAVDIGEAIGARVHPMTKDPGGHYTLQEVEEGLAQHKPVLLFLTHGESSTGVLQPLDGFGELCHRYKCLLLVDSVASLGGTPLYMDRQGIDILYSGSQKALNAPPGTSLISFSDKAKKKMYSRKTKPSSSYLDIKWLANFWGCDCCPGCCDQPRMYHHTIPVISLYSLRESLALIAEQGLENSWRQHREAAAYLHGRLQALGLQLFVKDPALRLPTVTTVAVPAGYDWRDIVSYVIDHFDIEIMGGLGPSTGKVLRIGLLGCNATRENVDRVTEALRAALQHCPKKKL
The series is described as follows: CD signal at […] nm, tight-binding quadratic fit. The conditions noted are these: 10 μM apoenzyme, 24 h incubation, PLP 1–300 μM.

Series [6] deals with T6, AGT (DMa, major allele) (Homo sapiens, UniProt P21549, I340M/P11L).
T6 construct: gene AGXT; full length, expressed in E. coli BL21(DE3), purified on HisPrep FF (His-tagged, removal not mentioned)
T6 sequence (P21549 1-392 P11L/I340M): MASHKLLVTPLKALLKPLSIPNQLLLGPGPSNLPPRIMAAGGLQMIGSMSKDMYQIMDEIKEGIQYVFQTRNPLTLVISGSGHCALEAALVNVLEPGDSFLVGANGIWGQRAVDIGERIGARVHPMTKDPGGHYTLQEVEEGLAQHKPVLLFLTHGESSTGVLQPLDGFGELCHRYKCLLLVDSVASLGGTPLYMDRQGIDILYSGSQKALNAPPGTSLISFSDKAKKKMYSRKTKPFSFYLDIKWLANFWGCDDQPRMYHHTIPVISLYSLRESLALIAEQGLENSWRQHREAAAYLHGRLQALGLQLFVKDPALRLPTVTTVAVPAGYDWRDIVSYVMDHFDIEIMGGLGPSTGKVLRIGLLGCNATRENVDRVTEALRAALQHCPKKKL
The series is described as follows: not described here for DMi. The format is binding. The conditions noted are these: read-out: KD(PLP). From the text:
not described here for DMi on AGT (DMa, major allele; rows DMi, MMa, MMi)

In series [7] the target is artificial monomeric form of alanine:glyoxylate aminotransferase on the major allele (MMa), R118A/F238S/F240S, recombinant purified (human) (UniProt P21549). The series is described as follows: SEC; holo-form, in the presence of saturating PLP; Superdex 200 10/300 GL, room temperature, KP 0.1 M, pH 7.4; samples at different concentrations incubated overnight at 25 °C; percent dimer from peak areas fitted; dimer to monomers. On the technique in general: In gel filtration, larger molecules generally elute earlier.

Series [8] has the same target. Kind of series: SEC; apo-form; Superdex 200 10/300 GL, room temperature, KP 0.1 M, pH 7.4; samples at different concentrations incubated overnight at 25 °C; percent dimer from peak areas fitted; dimer to monomers.
Series [9] concerns the molecule itself. Described as above.
Series [10] deals with the molecule itself. Kind of series: SEC; holo-form, in the presence of saturating PLP; Superdex 200 10/300 GL, room temperature, KP 0.1 M, pH 7.4; samples at different concentrations incubated overnight at 25 °C; percent dimer from peak areas fitted; dimer to monomers.

Where only a bound is given, the exact number is not on record here.

In the case of `Cc1ncc(COP(=O)(O)O)c(C=O)c1O` [PLP], the Kd in series [1] is 0.25 ± 0.03 µM; in series [2], 4.4 ± 0.5 µM; in [3] it was 0.27 ± 0.03 µM; in [4], 3.2 ± 0.6 µM; in series [5], 7.2 ± 1.1 µM; in series [6], 0.26 ± 0.02 µM.

As for “artificial monomeric form of alanine:glyoxylate aminotransferase on the major allele (MMa), R118A/F238S/F240S, recombinant purified (from UniProt P21549 1-392) (enzyme)”, the figures for the Kd in [7] and in [8] were 1.5 µM and 4.1 µM, respectively.

B1: alanine:glyoxylate aminotransferase, native dimeric form encoded by the major allele (DMa), recombinant purified (enzyme, human, UniProt P21549 1-392, looked up)
chain: MASHKLLVTPPKALLKPLSIPNQLLLGPGPSNLPPRIMAAGGLQMIGSMSKDMYQIMDEIKEGIQYVFQTRNPLTLVISGSGHCALEAALVNVLEPGDSFLVGANGIWGQRAVDIGERIGARVHPMTKDPGGHYTLQEVEEGLAQHKPVLLFLTHGESSTGVLQPLDGFGELCHRYKCLLLVDSVASLGGTPLYMDRQGIDILYSGSQKALNAPPGTSLISFSDKAKKKMYSRKTKPFSFYLDIKWLANFWGCDDQPRMYHHTIPVISLYSLRESLALIAEQGLENSWRQHREAAAYLHGRLQALGLQLFVKDPALRLPTVTTVAVPAGYDWRDIVSYVIDHFDIEIMGGLGPSTGKVLRIGLLGCNATRENVDRVTEALRAALQHCPKKKL
notes: human alanine:glyoxylate aminotransferase (AGT), major allele (Pro11, Ile340); bacterial construct pAGT-Ma; Homodimer in its native state; Used as apo-form and as holo-form (with PLP); also called AGT; AGT-Ma; source: E. coli BL21(DE3), purified (HisPrep FF)
As for B1, the Kd in series [9] and in [10] was less than 0.3 µM in each case.

B2: alanine:glyoxylate aminotransferase, native dimeric form encoded by the minor allele (DMi), recombinant purified (enzyme, human, UniProt P21549 1-392, looked up)
chain: MASHKLLVTPLKALLKPLSIPNQLLLGPGPSNLPPRIMAAGGLQMIGSMSKDMYQIMDEIKEGIQYVFQTRNPLTLVISGSGHCALEAALVNVLEPGDSFLVGANGIWGQRAVDIGERIGARVHPMTKDPGGHYTLQEVEEGLAQHKPVLLFLTHGESSTGVLQPLDGFGELCHRYKCLLLVDSVASLGGTPLYMDRQGIDILYSGSQKALNAPPGTSLISFSDKAKKKMYSRKTKPFSFYLDIKWLANFWGCDDQPRMYHHTIPVISLYSLRESLALIAEQGLENSWRQHREAAAYLHGRLQALGLQLFVKDPALRLPTVTTVAVPAGYDWRDIVSYVMDHFDIEIMGGLGPSTGKVLRIGLLGCNATRENVDRVTEALRAALQHCPKKKL
notes: human alanine:glyoxylate aminotransferase (AGT), minor allele (Pro11Leu, Ile340Met); bacterial construct pAGT-Mi; Homodimer in its native state; Used as apo-form and as holo-form (with PLP); also called AGT-Mi; source: E. coli BL21(DE3), purified (HisPrep FF)
For the molecule B2, the Kd in [9] and in series [10] was less than 0.3 µM each time.

B3: artificial monomeric form of alanine:glyoxylate aminotransferase on the minor allele (MMi), R118A/F238S/F240S, recombinant purified (enzyme, human, UniProt P21549 1-392, looked up)
chain: MASHKLLVTPLKALLKPLSIPNQLLLGPGPSNLPPRIMAAGGLQMIGSMSKDMYQIMDEIKEGIQYVFQTRNPLTLVISGSGHCALEAALVNVLEPGDSFLVGANGIWGQRAVDIGEAIGARVHPMTKDPGGHYTLQEVEEGLAQHKPVLLFLTHGESSTGVLQPLDGFGELCHRYKCLLLVDSVASLGGTPLYMDRQGIDILYSGSQKALNAPPGTSLISFSDKAKKKMYSRKTKPSSSYLDIKWLANFWGCDDQPRMYHHTIPVISLYSLRESLALIAEQGLENSWRQHREAAAYLHGRLQALGLQLFVKDPALRLPTVTTVAVPAGYDWRDIVSYVMDHFDIEIMGGLGPSTGKVLRIGLLGCNATRENVDRVTEALRAALQHCPKKKL
notes: human alanine:glyoxylate aminotransferase (AGT), minor allele (Pro11Leu, Ile340Met), with the interfacial mutations R118A/F238S/F240S on pAGT-Mi; Used as apo-form and as holo-form (with PLP); source: E. coli BL21(DE3), purified (HisPrep FF)
On to B3, for which the Kd in series [9] was determined as 80 ± 1 µM; in series [10], 9.4 ± 0.5 µM.
